In paper PMC2950884 (Nature structural & molecular biology, 2010):
Residue numbers refer to the chain shown, from its start. Names may count otherwise.

B1: Rtt103 CTD-interacting domain (residues 1-131) (domain or fragment)
chain: MPFSSEQFTTKLNTLEDSQESISSASKWLLLQYRDAPKVAEMWKEYMLRPSVNTRRKLLGLYLMNHVVQQAKGQKIIQFQDSFGKVAAEVLGRINQEFPRDLKKKLSRVVNILKERNIFSKQVVNDIERSL
B2: Rtt103(E115R)-CID (domain or fragment)
chain: B1 chain with E115R
B3: Rtt103-CID (R108N) (domain or fragment)
chain: B1 chain with R108N
B4: Pcf11 CTD-interacting domain (domain or fragment, S. cerevisiae, UniProt P39081 4-139, looked up)
chain: DTEVIVKDFNSILEELTFNSRPIITTLTKLAEENISCAQYFVDAIESRIEKCMPKQKLYAFYALDSICKNVGSPYTIYFSRNLFNLYKRTYLLVDNTTRTKLINMFKLWLNPNDTGLPLFEGSALEKIEQFLIKAS
B5: Pcf11(D117A)-CID (domain or fragment)
chain: B4 chain with D114A
B6: Pcf11(D117K)-CID (domain or fragment)
chain: B4 chain with D114K
B7: Pcf11-CID (N107R): Pcf11 with arginine in place of Asn107; CID in vitro, TAP tagged protein in ChIP (protein)
chain: B4 chain with N104R

Key:
[1] = target: Rtt103 CTD-interacting domain (residues 1-131) (S. cerevisiae) (UniProt Q05543); experiment: NMR titration
[2] = target: Pcf11 CTD-interacting domain (S. cerevisiae) (UniProt P39081); experiment: NMR titration
[3] = target: Pcf11-CID (N107R) (S. cerevisiae) (UniProt P39081); experiment: NMR titration
[4] = target: Ser2abP-CTD diheptad repeat peptide (phosphorylated at both Ser2 positions); experiment: fluorescence polarisation
[5] = target: Ser5abP-CTD diheptad repeat peptide; experiment: fluorescence polarisation
[6] = target: Ser2abP/Ser5abP-CTD diheptad repeat peptide; experiment: fluorescence polarisation
[7] = target: four heptad repeat Ser2P CTD peptide; experiment: fluorescence polarisation
[8] = target: four heptad repeat Ser2P CTD peptide; experiment: NMR relaxation
[9] = test system: ADH1 gene; experiment: ChIP of TAP tagged proteins, 3′-end recruitment; format: cell-based, yeast
[10] = test system: PMA1 gene; experiment: ChIP of TAP tagged proteins, 3′-end recruitment; format: cell-based, yeast
[11] = target: the molecule itself; experiment: AUC
[12] = untagged wild-type Pcf11 present

Row | Molecule | Kd [1] [µM] | Kd [2] [µM] | Kd1 (first binding event) [7] [µM] | Kd2 (second binding event) [7] [µM] | other results
1 | Ser2abP/Ser5abP-CTD diheptad repeat peptide | 41 | 630 | – | – | –
2 | Ser2aP-CTD diheptad repeat peptide | 420 | 1400 | – | – | –
3 | Ser5abP-CTD diheptad repeat peptide | – | 1200 | – | – | –
4 | Ser2bP-CTD diheptad repeat peptide | 76 | 240 | – | – | –
5 | Ser2abP-CTD diheptad repeat peptide (phosphorylated at both Ser2 positions) | 15 | 160 | – | – | Kd [3]: 24 µM
6 | B1 | – | – | 3 | 20 | Kd [4]: 2.1 µM; Kd [5]: 122 µM; Kd [6]: 53 µM; stoichiometry N (proteins per peptide) [8]: 2
7 | B2 | – | – | 1.8 | > 1000 | stoichiometry N (protein per peptide) [8]: 1
8 | B3 | – | – | – | – | Reduction of 3′-end recruitment compared with wild type (factor) [9]: 5; Kd [4]: 100 µM; Reduction of 3′-end recruitment compared with wild type (factor) [10]: 8
9 | B4 | – | – | 50 | 140 | Kd [4]: 130 µM; Kd [6]: 370 µM; stoichiometry N [11]: 2
10 | B5 | – | – | 40 | 430 | –
11 | B6 | – | – | 30 | 130 | –
12 | B7 | – | – | – | – | Increase of 3′-end recruitment compared with wild type Pcf11-TAP (factor) [9, 12]: > 2; Increase of 3′-end recruitment compared with wild type Pcf11-TAP (factor) [10, 12]: > 2
